Reference: PMC4878091 (The Journal of Cell Biology, 2016)

Target: recombinant collagen IV α2 monomer (α2-84/α2-CB3)
Assay: SEC

stoichiometry N: 2
B1: recombinant collagen IV α1 monomer (α1-84/α1-CB3) (domain or fragment)
chain: not shown
